Consider ten molecules from patent US20130078247A1 (Boehringer Ingelheim, published 2013).

Assay [1] concerns the target T1, mouse DLL4, full length, overexpressed on CHO or HEK293 cells (mouse, UniProt Q9JI71 27-686).
T1 construct: whole, on cells; also called CHO-mDLL4; CHO-mDII4
As to the kind of experiment: periplasmic extract; FMAT, Notch1/Fc on CHO-mDLL4. The source says:
(§1) All calculations are based on the FL1_total signal which comprises the average of the fluorescence per well times the number of counts per well.

The target in assay [2] is T2, human DLL4, full length, overexpressed on CHO or HEK293 cells (human, UniProt Q9NR61 27-685).
T2 construct: also called CHO-hDLL4; CHO-hDII4
As to the kind of experiment: periplasmic extract; FMAT, Notch1/Fc on CHO-hDLL4.
Text: as §1

Assay [3] addresses T2, human DLL4, full length, overexpressed …. As to the kind of experiment: cell-based or functional assay.
The target in assay [4] is recombinant human DLL4 extracellular domain, C-terminally His-tagged (R&D Systems) (human, UniProt Q9NR61 25-522, biotinylated in the competition assays (sites not given)). The assay can be described thus: cell-based or functional assay.
The target in assay [5] is T3, recombinant human Jagged-1 (Alexis) (human, UniProt P78504 34-1067, limits assumed).
T3 construct: also called hJagged-1; hJAG1
The assay can be described thus: rhDLL1/rhJAG1 binding ELISA.

The target in assay [6] is T4, recombinant human DLL1 (Alexis) (human, UniProt O00548 18-545, limits assumed).
T4 construct: also called hDLL1; rhDLL1
T4 sequence (looked up): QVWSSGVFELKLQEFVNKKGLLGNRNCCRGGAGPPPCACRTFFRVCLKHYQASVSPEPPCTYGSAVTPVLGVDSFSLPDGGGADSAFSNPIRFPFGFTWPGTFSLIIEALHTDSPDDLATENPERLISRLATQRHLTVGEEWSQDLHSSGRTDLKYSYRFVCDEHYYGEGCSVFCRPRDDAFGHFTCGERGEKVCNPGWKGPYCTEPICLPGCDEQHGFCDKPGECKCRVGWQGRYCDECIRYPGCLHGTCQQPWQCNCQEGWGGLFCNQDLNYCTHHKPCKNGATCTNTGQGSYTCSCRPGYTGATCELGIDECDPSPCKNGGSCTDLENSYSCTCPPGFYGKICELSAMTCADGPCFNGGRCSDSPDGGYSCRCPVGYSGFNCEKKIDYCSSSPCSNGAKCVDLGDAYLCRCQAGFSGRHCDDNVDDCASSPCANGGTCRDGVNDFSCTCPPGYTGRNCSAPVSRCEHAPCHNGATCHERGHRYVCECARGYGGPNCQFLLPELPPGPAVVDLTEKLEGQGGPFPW
As to the kind of experiment: rhDLL1/rhJAG1 binding ELISA.

Assay [7] deals with T5, recombinant human DLL4 (human, UniProt Q9NR61 25-522). As to the kind of experiment: cell-based or functional assay.
The target of the next assay is T6, human DLL1 (human, UniProt O00548 18-545, limits assumed).
T6 construct: also called hDLL1; rhDLL1
T6 sequence (looked up): T4 sequence (looked up)
As to the kind of experiment: binding ELISA, coated hDLL1. Here is the method: (§2) Absence of binding to homologous ligands human DLL1 and human Jagged-1 is assessed via solid phase binding assay (ELISA). In brief, human DLL1 (Alexis, San Diego, Calif., USA) and human Jagged-1 (Alexis, San Diego, Calif., USA) are coated overnight at 4° C. at 1 μg/mL in a 96-well MaxiSorp plate (Nunc, Wiesbaden, Germany). Wells are blocked with a casein solution (1% in PBS). VHHs are applied as dilution series and binding is detected using a mouse anti-myc (Roche) and an anti-mouse-AP conjugate (Sigma, St. Louis, Mo., USA).

The target of assay [8] is T5, recombinant human DLL4. As to the kind of experiment: ProteOn off-rate screen, periplasmic extract, hDLL4 on chip.
Another assay addresses T7, recombinant mouse DLL4 (mouse, UniProt Q9JI71 27-532).
T7 construct: extracellular domain; also called rmDLL4; mDLL4; not shown: C-terminal His tag
As to the kind of experiment: ProteOn off-rate screen, periplasmic extract, mDLL4 on chip.

The next assay concerns the target T8, human Jagged-1 (human, UniProt P78504 34-1067, limits assumed).
T8 construct: also called hJag-1; hJAG1
The assay can be described thus: binding ELISA, coated hJagged-1. How it is done: as §2

Residue numbers refer to the chain shown, from its start.

T1 sequence (Q9JI71 27-686): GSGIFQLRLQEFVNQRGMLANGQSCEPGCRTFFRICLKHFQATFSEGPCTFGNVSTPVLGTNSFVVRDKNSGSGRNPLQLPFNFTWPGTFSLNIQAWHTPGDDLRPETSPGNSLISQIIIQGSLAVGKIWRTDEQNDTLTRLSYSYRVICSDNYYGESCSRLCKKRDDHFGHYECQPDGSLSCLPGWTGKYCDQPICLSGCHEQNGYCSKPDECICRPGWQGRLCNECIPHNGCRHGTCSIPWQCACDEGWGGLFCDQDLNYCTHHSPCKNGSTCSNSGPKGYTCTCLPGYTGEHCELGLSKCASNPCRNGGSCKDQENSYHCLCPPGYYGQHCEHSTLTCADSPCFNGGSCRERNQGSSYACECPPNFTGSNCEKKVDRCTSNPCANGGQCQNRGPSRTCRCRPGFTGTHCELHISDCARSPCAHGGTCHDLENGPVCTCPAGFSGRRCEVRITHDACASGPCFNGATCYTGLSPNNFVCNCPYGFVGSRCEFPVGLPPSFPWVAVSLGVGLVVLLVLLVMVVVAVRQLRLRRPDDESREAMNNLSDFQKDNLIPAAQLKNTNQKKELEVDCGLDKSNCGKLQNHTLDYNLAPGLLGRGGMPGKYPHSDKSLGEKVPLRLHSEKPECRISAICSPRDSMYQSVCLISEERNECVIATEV
T7 sequence (Q9JI71 27-532): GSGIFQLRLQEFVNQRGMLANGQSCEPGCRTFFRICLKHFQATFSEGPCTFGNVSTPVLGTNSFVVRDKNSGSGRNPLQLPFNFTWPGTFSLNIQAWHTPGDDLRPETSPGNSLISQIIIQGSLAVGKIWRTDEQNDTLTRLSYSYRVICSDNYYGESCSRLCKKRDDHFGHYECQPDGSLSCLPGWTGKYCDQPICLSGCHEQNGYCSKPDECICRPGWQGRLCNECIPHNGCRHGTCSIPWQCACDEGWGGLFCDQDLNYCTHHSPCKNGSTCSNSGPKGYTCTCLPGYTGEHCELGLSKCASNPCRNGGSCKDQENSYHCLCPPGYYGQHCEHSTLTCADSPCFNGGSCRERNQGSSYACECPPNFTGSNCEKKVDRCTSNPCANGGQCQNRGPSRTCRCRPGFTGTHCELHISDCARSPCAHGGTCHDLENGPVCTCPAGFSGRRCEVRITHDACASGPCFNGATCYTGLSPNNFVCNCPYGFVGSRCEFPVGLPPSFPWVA

B1: DLLBII96C03 (VHH)
VHH: EVQLVESGGGLVQPGGSLRLSCAASGFTFGNYDMSWVRQAPGKGPEWVSAINSGGGDTYYADSVKGRFTISRDNAKNTLYLQMNSLKPEDTAVYYCATPRGWGPTGPHEYGYWGQGTQVTVSS
notes: also called 96CO3; 96C3; not shown: C-terminal c-myc and His6 tags
As for B1, the entries for the “% inhibition” value in assay [1] and in assay [2] were 83% and 75%, respectively. Further, the “IC50, DLL4/Notch1 reporter assay (luciferase; co-culture with HEK293-hDII4)” value (shortened to “IC50, DLL4/Notch1 reporter assay”) in [3] was 5160 nM.

B2: DLLBII104G01 (VHH)
VHH: EVQLVESGGGLVQAGGSLRLSCAASGFTFDDYAIGWFRQAPGKEREGVSCISSSDGSTYYADSVKGRFTISSDNAKNTVYLQMNSLKPEDTAVYYCATAWCDSSWYRSFVGYWGQGTQVTVSS
notes: also called 104G1; DLLBII104G1; not shown: C-terminal c-myc and His6 tags
B2: the figures for the “% inhibition” value in assay [1] and in assay [2] were 86% and 94%, respectively. Besides, in [4], the “concentration giving complete inhibition, HUVEC proliferation assay” value worked out at 10 µM. Further, the “IC50, DLL4/Notch1 reporter assay” value in [3] is 964 nM.

B3: DLLBII62C11 (VHH)
VHH: EVQLMESGGGLVQPGGSLRLSCVAAGFTFSNYYMSWVRQAPGKGLEWVSVISPDGSNTYYADTVKGRFTISRGNAKNTLFLQMTGLKSEDAAVYYCARGSGSWGVHGQGTQVTVSS
notes: not shown: C-terminal c-myc and His6 tags
Regarding B3, the “% inhibition” value in assay [1] was determined as 71%; in assay [2], 74%. Besides, in [3], the “IC50, DLL4/Notch1 reporter assay” value is 4660 nM.

B4: DLLBII129D08 (VHH)
VHH: EVQLVESGGGLVQAGGSLRLSCAASGRTFSSYAMAWYRQAPGKEREYVAAIRWSGGTAYYADSVQGRFTISRDNAKNTVYLQMNSLKPEDTAVYYCANRAPDTRLEPYLYDYWGQGTQVTVSS
notes: as for B3
For B4, the binding result in [5] and in assay [6] was “no binding” throughout.

B5: DLLBII101G08 (VHH)
VHH: B4 VHH with Y37F, Y47F, P101A, E106G, L109E
notes: also called 101G8; DLLBII101G8; not shown: C-terminal c-myc tag and His6 tag
With B5, the “IC50 (nM) in the DLL4 proliferation assay (HUVEC, experiment 1)” value with recombinant human DLL4 [7] is 401 nM. Besides, the “IC50 (nM) in the DLL4 proliferation assay (HUVEC, experiment 2)” value with recombinant human DLL4 [7] is 112 nM. In addition, the binding result with human DLL1 and with human Jagged-1 was “no binding” in each case. Further, the “fold (off-rate improvement over DLLBII101G08)” value with recombinant human DLL4 [8] and with recombinant mouse DLL4 was 1 fold each time.

B6: DLLBII129B05 (VHH)
VHH: B4 VHH with E106A, L109E, Y112H
notes: as for B3
Take B6: the binding result in assay [5] and in assay [6] was “no binding” each time.

B7: DLLBII129E11 (VHH)
VHH: B4 VHH with E106R
notes: as for B3
As to B7, the binding result in [5] and in assay [6] was “no binding” each time.

B8: DLLBII115A05 (VHH)
VHH: EVQLVESGGGLVQPGGSLRLSCAASGFTFGSYDMSWVRRSPGKGPEWVSSINSGGGSTYYADFVKGRFTISRDNAKNTLYLQMNSLKPEDTAVYYCAADRYIRARQGDYWGAYEYDYWGQGTQVTVSS
notes: also called 115A5; DLLBII115A5; not shown: C-terminal c-myc tag and His6 tag
For the molecule B8, the “IC50 (nM) in the DLL4 proliferation assay (HUVEC, experiment 1)” value with recombinant human DLL4 [7] stood at 10000 nM. For the same molecule, the binding result with human DLL1 and with human Jagged-1 was “no binding” each time.

B9: DLLBII015 (VHH)
VHH: B8 VHH with F29I, S50A, F63Y, R103W, D108E, E114A
notes: as for B3
As to B9, the binding result in assay [5] and in [6] was “no binding” each time.

B10: DLLBII136C07 (VHH)
VHH: B8 VHH with F63Y, R103W, D108E
notes: as for B3
Regarding B10, the binding result in assay [5] and in assay [6] was “no binding” each time.
